The text below walks through data of the Immune Epitope Database (IEDB).

One assay addresses HLA-A*02:01. The assay is described as follows: IEDB peptide-MHC binding, purified MHC/competitive/radioactivity; ≥ and ≤ were set here for values at or beyond the usual limits of such assays. Particulars: source organism: Bordetella pertussis.
For the sequence GVAPTAQQL, the IC50 was found to be 69.4 µM. On the same count and under the same terms, as for VLVKTNMVV, the figure is 11.4 µM; as for YMIYMSGLA, 0.407 µM.

In another assay the target is HLA-B*07:02. The description is as above. Particulars: source organism: Bordetella pertussis.
As for FVRSGQPVI, the concentration for half-maximal inhibition (IC50) was 17.6 µM.

Take GPSAVAAPA: the IC50 came to 0.624 µM. Same read-out and setting: as for PPKPAPVAK, the figure is at least 77.5 µM; as for GPPSRPTTP, 69.6 µM.

A further assay deals with HLA-B*35:01. The description is as above. Particulars: source organism: Bordetella pertussis.
For the sequence VHVSKEEQY, the 50% inhibitory concentration (IC50) amounted to 69.9 µM. On the same count and under the same terms, as for GKDLKRPGS, the figure is 69.9 µM. Consider QVGSSNSAF, for which the IC50 is 69.9 µM. ETFCITTIY: the half-inhibitory concentration (IC50) worked out at 15.8 µM.

The target of the next assay is HLA-B*44:03. The assay is described as above. The settings on record: source organism: Bordetella pertussis.
On to AQITSYVGF, for which the IC50 was determined as 2.12 µM. Same read-out and setting: the value for AAVALLNKL was 0.672 µM.

In a further assay the target is HLA-B*53:01. Described as above. The settings on record: source organism: Bordetella pertussis.
Consider MAAESTFES, for which the IC50 is 24.1 µM. As for ETFCITTIY, the 50% inhibitory concentration (IC50) turned out to be 31.1 µM. On the same count and under the same terms, as for MATKGEMQI, the figure is 58 µM.

In a further assay the target is HLA-B*57:01. The assay is described as above. The settings on record: source organism: Bordetella pertussis.
For ITVTSRGGF, the half-inhibitory concentration (IC50) was 0.773 µM. On the same count and under the same terms, as for AVLVNPHIF, the figure is 33.3 µM. For the sequence TTLGLEQTF, the IC50 is 4.77 µM. Same read-out and setting: as for DDEVDVSGR, the figure is at least 70.4 µM.

The IC50 is the concentration needed to halve the response being measured.
